{"source": "patent CN116410305A", "about": "(ATTOGEN BIOMEDICAL SUZHOU INC LTD, dated 2023)", "molecular_target": "T1, 宫颈癌组织/细胞中内源的HPV16 E6蛋白 (HPV16, UniProt P03126 1-158)", "T1 construct": "Target detected by IHC or ICC in fixed tissue or cells; also called HPV16 E6致癌蛋白; HPV16 E6癌蛋白", "T1 sequence (P03126 whole entry)": "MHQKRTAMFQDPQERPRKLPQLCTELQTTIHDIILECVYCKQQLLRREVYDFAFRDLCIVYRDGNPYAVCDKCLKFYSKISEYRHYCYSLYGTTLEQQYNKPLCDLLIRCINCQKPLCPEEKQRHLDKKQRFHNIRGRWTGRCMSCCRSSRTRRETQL", "assay": "IHC on FFPE cervical cancer tissue array, clone supernatant"}
{"binder": "抗HPV16 E6单克隆抗体A3E1 (antibody, V domains shown, Rabbit monoclonal IgG from single B cell cloning, tested as B cell clone supernatant and as recombinant IgG from CHO cells; also called 克隆上清A3E1; 抗体克隆A3E1) VH: QSLEESGGGLVTPGGTLTLTCTASGIDFSANYWIYWVRQTPGKGLEWIASIFTSDGETHYATWAKGRFTISKTSSTTVTLQMTSLTAADTATYFCATGGALWGPGTLVTVSS VL: DIVMTQTPASVEAAVGGTVTIKCQASEDIENYLAWYQQKPGQPPKRLIYKASTLASGVPSRFKGSGSGTDFTLTISDLECADAATYYCQSNYYNFGSNYGSFAFGGGTEVVVK", "values": [{"measurement": "binding result", "value": "binds"}]}
